Measured values published in US7939057B2, “Methods and compositions for modulating the mobilization of stem cells” (Mount Sinai School of Medicine, priority 2006, dated 2011).

Assays:
[1] = test system: bone lining osteoblasts; experiment: Morphology of bone lining osteoblasts (CD44 immunofluorescence); format: in vivo; details: G-CSF-treated wild-type C57BL/6 mice
Description: For the morphology of bone lining osteoblasts, femoral bones were fixed overnight in formalin, decalcified in 10% EDTA (pH 7.4) for 48 h, snap-frozen in isopentane chilled in liquid nitrogen, and sectioned at 10 μm thickness. Sections were fixed with 4% parafolmaldehyde for 20 min, stained with anti-CD44 (KM201) followed by donkey Alexa-488-anti-rat IgG (Molecular Probes, Eugene, Oreg.), and mounted in Vectashield Mounting Medium with DAPI (Vector Laboratories). TUNEL assay was done using an In Situ Cell Death Detection Kit (Roche Applied Science, Penzberg, Germany) according to manufacturer's recommendation. Images were captured and analyzed with Olympus BX61WI (Hauppauge, N.Y.) with 60× objective mounted on a motorized X, Y stage and a Z focusing drive (Applied Scientific Instrumentation, Eugene, Oreg.). Images are collected with Coolsnap HQ digital camera (Ropert Scientific, Munich, Germany). A Dell workstation with SlideBook software (Intelligent Imaging Innovations, Denver, Colo.) provided for synchronization of components, data acquisition and image deconvolution.

[2] = test system: Runx2; experiment: Q-PCR of Runx2 in BMNCs after G-CSF; format: in vivo; details: bone marrow of Cgt+/+ mice after G-CSF; n=4, p<0.001
Description: (§1) Methods, primers and PCR conditions are available in Table S3. Briefly, total RNA was extracted from BMNC using TRIzol solution (Invitrogen, Carlsbad, Calif.). The bone carcass was then immersed in liquid nitrogen, and pulverized into powder followed by RNA extraction with TRIzol. Total RNA (1 μg) was treated with DNaseI (Invitrogen, Carlsbad, Calif.), and reverse transcribed using first strand cDNA synthesis with random primers (Promega, Madison, Wis.). Q-PCR was performed using SYBR Green (Molecular Probes) on an ABI PRISM 7900HT Sequence Detection System (Applied Biosystems, Foster city, CA). All experiments were done in triplicate and normalized to GAPDH.

[3] = test system: CXCL12; experiment: CXCL12 protein by ELISA in BMEF and bone extracts after G-CSF; format: in vivo, mice
Description: CXCL12 ELISA was done exactly as described (Petit, I., Szyper-Kravitz, M., Nagler, A., Lahav, M., Peled, A., Habler, L., Ponomaryov, T., Taichman, R. S., Arenzana-Seisdedos, F., Fujii, N., et al. (2002). G-CSF induces stem cell mobilization by decreasing bone marrow SDF-1 and up-regulating CXCR4. Nat Immunol 3, 687-694). Mouse plasma osteocalcin was measured using ELISA kit (Biomedical Technologies Inc., Stoughton, Mass.) according to manufacturer's recommendation.
BMEF was obtained by flushing two femurs with one ml of ice-cold PBS, and the supernatant was harvested after 25 strokes of gentle pipetting followed by centrifugation at 400 g for 5 min. Bone protein extraction was performed as described (Pfeilschifter, J., Laukhuf, F., Muller-Beckmann, B., Blum, W. F., Pfister, T., and Ziegler, R. (1995). Parathyroid hormone increases the concentration of insulin-like growth factor-I and transforming growth factor beta I in rat bone. J Clin Invest 96, 767-774). After extraction, the samples were dialyzed extensively against cold PBS (pH 7.4) for 72 h with a dialysis cassette of 3500 MWCO (Pierce). Volume of dialyzed extracts was measured, centrifuged at 16,000 g for 15 min at 4° C., and the supernatants stored at −80° C. CXCL12 levels in BMEF and bone extracts were determined by ELISA.

[4] = test system: α1(I) collagen; experiment: Q-PCR of α1(I) collagen in BMNCs after G-CSF; format: in vivo; details: bone marrow of Cgt+/+ mice after G-CSF; n=4, p<0.05
Description: as §1

[5] = test system: rhCXCL12α; experiment: Degradation of rhCXCL12α by BMEF of G-CSF-treated mice (Western blot); format: biochemical, human; details: 24 h at 37° C.
Description: PBS or BMEF (35 μl) from G-CSF-treated and control mice was incubated with 50 ng of rhCXCL12α (R&D Systems) for 24 h at 37° C. The reactions were stopped by the addition of sample buffer containing protease inhibitor cocktail (Sigma) and DTT (final concentration 10 mM) followed by boiling for 5 min at 95° C. Samples were separated by electrophoresis on 16% polyacrylamide Tris-tricine gel and transferred onto PVDF membrane (0.2 μm pore size, Millipore, Bedford, Mass.). Membranes were blocked in TBS with 0.05% Tween 20 and 4% milk, incubated with 0.5 μg/ml of mouse monoclonal anti-CXCL12 antibody (clone 79018.111, R&D Systems) then with 1/20,000 dilution of horseradish peroxidase-anti-mouse IgG (Jackson Immunoresearch, West Grove, Pa.). Signal was detected with the enhanced chemiluminescence method (West Dura Extended Duration Substrate, Pierce, Rockford, Ill.).

[6] = test system: CXCL12; experiment: CXCL12α and CXCL12β mRNA by Q-PCR in BM and bone after G-CSF; format: in vivo, mice
Description: as §1

[7] = test system: NE; experiment: NE content in heart and bone after G-CSF (HPLC); format: in vivo, C57BL/6 mice
Description: Mice were sacrificed and hearts were rapidly removed, weighed, frozen in liquid nitrogen. Tissues were homogenized in HPLC solvent (0.1M TCA, which contains 10^−2 M sodium acetate, 10^−4 M EDTA and 10.5% methanol, pH 3.8). Hindlimb long bones were harvested, weighted, frozen in liquid nitrogen. Pooled bones were crushed using a bessman tissue pulverizer (Spectrum Laboratories) pre-chilled in a liquid nitrogen bath. Pulverized tissues were homogenized (620 mg/ml) in 0.4N HClO4 containing 0.84 mg/mL EDTA and 12.5 μL of 4% sodium pyrosulfite solution. Bone catecholamines were extracted using solid Al203 and then desorbed from the Al203 using 0.1 N acetic acid. NE levels were determined by HPLC at the Neurochemistry Core Lab, Vanderbilt University's Center for Molecular Neuroscience Research (Nashville, Tenn.).

B1: G-CSF: recombinant human G-CSF (Filgrastim, Amgen), hematopoietic cytokine used to elicit HSPC mobilization (protein, UniProt P09919 31-207, looked up)
Granulocyte …: TPLGPASSLPQSFLLKCLEQVRKIQGDGAALQEKLVSECATYKLCHPEELVLLGHSLGIPWAPLSSCPSQALQLAGCLSQLHSGLFLYQGLLQALEGISPELGPTLDTLQLDVADFATTIWQQMEELGMAPALQPTQGAMPAFASAFQRRAGGVLVASHLQSFLEVSYRVLRHLAQP
modifications: filgrastim
notes: recombinant human G-CSF (Filgrastim, Amgen), hematopoietic cytokine used to elicit HSPC mobilization
[1]
  appearance of bone-lining osteoblasts: flattened appearance with shorter projections
[2]
  levels of Runx2, reduction: 65%
[3]; Cgt+/+ and +/− mice after G-CSF injection
  CXCL12 protein in BMEF: greatly reduced
[3]; Cgt−/− mice after G-CSF
  CXCL12 protein in BMEF: significantly reduced
[3]; Cgt−/− mice following G-CSF
  CXCL12 protein levels in bone: no reduction
[3]; Dbh+/− mice following G-CSF
  CXCL12 in bone protein extracts: reduced
[3]; Dbh−/− animals following G-CSF
  CXCL12 levels in bone protein extracts: maintained
[3]; normal littermate mice following G-CSF
  CXCL12 protein in bone: decreased
[4]
  α1(I) collagen, reduction: 92%
[5]; BMEF from G-CSF-treated Cgt+/+ mice
  degradation of recombinant CXCL12 by BMEF: completely degraded
[5]; BMEF from G-CSF-treated Cgt−/− mice
  degradation of recombinant CXCL12 by BMEF: complete degradation
[6]; after G-CSF treatment, p<0.05 for CXCL12α, p=0.06 for CXCL12β
  CXCL12 mRNA levels in bone: moderately decreased
[6]; after G-CSF, Cgt−/− and normal littermates
  mRNA expression of both CXCL12 isoforms in BM: profoundly decreased
[7]; 3 h after G-CSF administration (250 μg/kg s.c.)
  bone NE levels: dramatic reduction
[7]; single dose of G-CSF (250 μg/kg s.c.)
  cardiac NE levels: slightly reduced
